Measured values as given in paper PMC9589210.

Experiments:
[1] = target: R5L-Tau, 3RS isoform, Alexa 488-labeled (construct for FCS) (UniProt P10636); assay: fluorescence correlation spectroscopy (FCS); ~20 nM Alexa 488-labeled Tau, tubulin titrated 0.5-10 μM, nonpolymerizing conditions, BRB80 (80 mM Pipes, 1 mM EGTA, 1 mM MgCl2, pH 6.9), 20 °C, 5 min incubation; diffusion times normalised to that without tubulin and fit to a binding model
[2] = target: WT-Tau, 3RS isoform, Alexa 488-labeled (construct for FCS) (UniProt P10636); assay: as above
[3] = target: microtubules polymerised from bovine brain tubulin (bovine (endogenous in brain)) (UniProt Q6B856)
[4] = target: microtubules polymerised from bovine brain tubulin (bovine (endogenous in brain)) (UniProt Q6B856); assay: TIRF microscopy (single-molecule imaging); 750 nM unlabeled Tau spiked with 300 pM Alexa-647-labeled Tau on dynamic microtubules (5 μM tubulin, 10% Alexa-488) grown from surface-held GMPCPP seeds, TIRF assay buffer, 37 °C, 10 frames/s
[5] = target: microtubules polymerised from bovine brain tubulin (bovine (endogenous in brain)) (UniProt Q6B856); assay: TIRF microscopy (fluorescence intensity of labeled Tau on microtubules); occupancy: 750 nM Alexa-647 Tau on dynamic microtubules grown from surface-held GMPCPP seeds with 5 μM tubulin, 1 mM GTP, TIRF assay buffer (BRB80, 10 mM DTT, oxygen scavenger), 37 °C; normalized average fluorescence intensity, seeds excluded

| increase of the normalized diffusion time of Tau at saturation [1] | increase of the normalized diffusion time of Tau at saturation [2] | microtubule growth rate at the minus end, dynamic microtubules with 750 nM unlabeled Tau (TIRF) [3] | microtubule growth rate at the plus end, dynamic microtubules with 750 nM unlabeled Tau (TIRF) [3] | microtubule shrinkage rate at the minus end, dynamic microtubules with 750 nM unlabeled Tau (TIRF) [3] | microtubule shrinkage rate at the plus end, dynamic microtubules with 750 nM unlabeled Tau (TIRF) [3] | dwell time of diffusive events [4] | dwell time of static events [4] | percent static binding [4] | relative normalized fluorescence intensity of Tau on dynamic microtubules [5] | Substance |
| --- | --- | --- | --- | --- | --- | --- | --- | --- | --- | --- |
| 50% | 50% |  |  |  |  |  |  |  |  | tubulin (free, soluble), purified from bovine brain (from UniProt Q6B856 1-445) (complex) |
|  |  | 0.4 μm/min | 1 μm/min | 7.12 μm/min | 7.55 μm/min | 0.6 s | 0.7 s | 43% | 1 | WT-Tau, 3RS isoform (construct for TIRF microscopy), Alexa 647-labeled (from UniProt P10636-2 1-352) (natural protein) |
|  |  | 0.41 μm/min | 1.04 μm/min | 10.4 μm/min | 11 μm/min | 0.5 s | 0.7 s | 18% | 0.68 | R5L-Tau, 3RS isoform (construct for TIRF microscopy), Alexa 647-labeled (from UniProt P10636-2 1-352) (natural protein) |
